Experimental data: the supplement of paper PMC10724198
± gives the standard deviation of the averaged measurements.

Tests used:
Saccharomyces cerevisiae [1] = test: protein stability index of tFT-peptide fusion (C-terminal peptide) (PSI (0-1 scale)); higher = more stable (slower turnover)
Method: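 MPS profiling in S. cerevisiae of the tFT-X12 degron library: putative degron peptides plus stable controls, 12 aa, fused to the C-terminus of a sfGFP-mCherry timer. Cells are FACS-sorted into 8 mCherry/sfGFP bins and deep-sequenced. PSI runs from 0 (unstable) to 1 (stable). Backgrounds are wild type, das1Δ and doa10Δ at 30 °C, and wild type, das1Δ, cdc34-1 and cdc53-1 at 37 °C; 2-3 technical replicates each.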

Saccharomyces cerevisiae [2] = test: as above; conditions: genetic background: wild type; temperature: 30 C
[3] = genetic background: cdc34-1, temperature: 37 C
[4] = genetic background: cdc53-1, temperature: 37 C
[5] = genetic background: das1 deletion, temperature: 30 C
[6] = genetic background: das1 deletion, temperature: 37 C
[7] = genetic background: doa10 deletion, temperature: 30 C
[8] = genetic background: wild type, temperature: 30 C
[9] = genetic background: wild type, temperature: 37 C
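Further: PSI is a weighted mean of sequencing reads over stability bins, variants kept only with over 10 reads, mCherry proximal and sfGFP distal, peptide attached via GGGS linker.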

VFSVSVLFLFFH gave a protein stability index (Saccharomyces cerevisiae [1]; [3]) of 0.286 ± 0.0084, a protein stability index (Saccharomyces cerevisiae [1]; [4]) of 0.392 ± 0.0056 and a protein stability index (Saccharomyces cerevisiae [1]; [5]) of 0.282 ± 0.034. The protein stability index (Saccharomyces cerevisiae [1]; [6]) was 0.456 ± 0.015, the protein stability index (Saccharomyces cerevisiae [1]; [7]) was 0.251 ± 0.011 and the protein stability index (Saccharomyces cerevisiae [1]; [8]) was 0.242 ± 0.038. It also gave a protein stability index (Saccharomyces cerevisiae [1]; [9]) of 0.381 ± 0.019 and a protein stability index (Saccharomyces cerevisiae [2]) of 0.377 ± 0.032.

Work on VFVLFCAFVRAL yielded a protein stability index (Saccharomyces cerevisiae [1]; [3]) of 0.212 ± 0.025, a protein stability index (Saccharomyces cerevisiae [1]; [4]) of 0.413 ± 0.032 and a protein stability index (Saccharomyces cerevisiae [1]; [5]) of 0.286 ± 0.036. For the same sequence, the protein stability index (Saccharomyces cerevisiae [1]; [6]) was 0.482 ± 0.014, the protein stability index (Saccharomyces cerevisiae [1]; [7]) was 0.0841 ± 0.013 and the protein stability index (Saccharomyces cerevisiae [1]; [8]) was 0.0907 ± 0.0079. It also gave a protein stability index (Saccharomyces cerevisiae [1]; [9]) of 0.096736 ± 8.4e-05 and a protein stability index (Saccharomyces cerevisiae [2]) of 0.2111 ± 0.00022.

In the case of VFVLFLRAVACR, the protein stability index (Saccharomyces cerevisiae [1]; [3]) is reported as 0.0227 ± 0.0013, the protein stability index (Saccharomyces cerevisiae [1]; [4]) is reported as 0.0336 ± 0.0004 and the protein stability index (Saccharomyces cerevisiae [1]; [5]) is reported as 0.0288 ± 0.0046. The protein stability index (Saccharomyces cerevisiae [1]; [6]) was 0.0423 ± 0.0022, the protein stability index (Saccharomyces cerevisiae [1]; [7]) was 0.0174 ± 0.0024 and the protein stability index (Saccharomyces cerevisiae [1]; [8]) was 0.0193 ± 0.0039. It also gave a protein stability index (Saccharomyces cerevisiae [1]; [9]) of 0.0342 ± 0.015 and a protein stability index (Saccharomyces cerevisiae [2]) of 0.0236 ± 0.013.

Work on VFVMVLCALFYF yielded a protein stability index (Saccharomyces cerevisiae [1]; [3]) of 0.248 ± 0.034, a protein stability index (Saccharomyces cerevisiae [1]; [4]) of 0.282 ± 0.04 and a protein stability index (Saccharomyces cerevisiae [1]; [5]) of 0.242 ± 0.032. The protein stability index (Saccharomyces cerevisiae [1]; [6]) was 0.38 ± 0.032, the protein stability index (Saccharomyces cerevisiae [1]; [7]) was 0.2436 ± 0.0014 and the protein stability index (Saccharomyces cerevisiae [1]; [8]) was 0.236 ± 0.017. For the same sequence, the protein stability index (Saccharomyces cerevisiae [1]; [9]) was 0.319 ± 0.015 and the protein stability index (Saccharomyces cerevisiae [2]) was 0.279 ± 0.022.

With VFYRPFFVLFFV the protein stability index (Saccharomyces cerevisiae [1]; [3]) was 0.246 ± 0.026, the protein stability index (Saccharomyces cerevisiae [1]; [4]) was 0.228 ± 0.004 and the protein stability index (Saccharomyces cerevisiae [1]; [5]) was 0.265 ± 0.022. The protein stability index (Saccharomyces cerevisiae [1]; [6]) was 0.413 ± 0.011, the protein stability index (Saccharomyces cerevisiae [1]; [7]) was 0.113 ± 0.016 and the protein stability index (Saccharomyces cerevisiae [1]; [8]) was 0.0946 ± 0.022. The protein stability index (Saccharomyces cerevisiae [1]; [9]) was 0.152 ± 0.0038 and the protein stability index (Saccharomyces cerevisiae [2]) was 0.114 ± 0.0065.

Sequence VGDVVWFGVGAG has a protein stability index (Saccharomyces cerevisiae [1]; [3]) of 0.733 ± 0.033, a protein stability index (Saccharomyces cerevisiae [1]; [4]) of 0.7757 ± 0.0042 and a protein stability index (Saccharomyces cerevisiae [1]; [5]) of 0.662 ± 0.0049. It also gave a protein stability index (Saccharomyces cerevisiae [1]; [6]) of 0.782 ± 0.0084, a protein stability index (Saccharomyces cerevisiae [1]; [7]) of 0.662 ± 0.022 and a protein stability index (Saccharomyces cerevisiae [1]; [8]) of 0.6566 ± 0.005. For the same sequence, the protein stability index (Saccharomyces cerevisiae [1]; [9]) was 0.7438 ± 0.0022 and the protein stability index (Saccharomyces cerevisiae [2]) was 0.761 ± 0.023.

VGEQEVVGIGGV showed a protein stability index (Saccharomyces cerevisiae [1]; [3]) of 0.674 ± 0.039, a protein stability index (Saccharomyces cerevisiae [1]; [4]) of 0.7077 ± 0.0065 and a protein stability index (Saccharomyces cerevisiae [1]; [5]) of 0.653 ± 0.021. It also gave a protein stability index (Saccharomyces cerevisiae [1]; [6]) of 0.735 ± 0.046, a protein stability index (Saccharomyces cerevisiae [1]; [7]) of 0.642 ± 0.026 and a protein stability index (Saccharomyces cerevisiae [1]; [8]) of 0.646 ± 0.023. The protein stability index (Saccharomyces cerevisiae [1]; [9]) was 0.719 ± 0.03 and the protein stability index (Saccharomyces cerevisiae [2]) was 0.695 ± 0.018.

VGGGCVVVVRWG showed a protein stability index (Saccharomyces cerevisiae [1]; [3]) of 0.589 ± 0.044, a protein stability index (Saccharomyces cerevisiae [1]; [4]) of 0.615 ± 0.02 and a protein stability index (Saccharomyces cerevisiae [1]; [5]) of 0.485 ± 0.019. It also gave a protein stability index (Saccharomyces cerevisiae [1]; [6]) of 0.619 ± 0.009, a protein stability index (Saccharomyces cerevisiae [1]; [7]) of 0.477 ± 0.022 and a protein stability index (Saccharomyces cerevisiae [1]; [8]) of 0.475 ± 0.012. It also gave a protein stability index (Saccharomyces cerevisiae [1]; [9]) of 0.594 ± 0.0083 and a protein stability index (Saccharomyces cerevisiae [2]) of 0.52 ± 0.035.

Sequence VGLWCWSFVLVW has a protein stability index (Saccharomyces cerevisiae [1]; [3]) of 0.0589 ± 0.018, a protein stability index (Saccharomyces cerevisiae [1]; [4]) of 0.0934 ± 0.034 and a protein stability index (Saccharomyces cerevisiae [1]; [5]) of 0.11 ± 0.03. It also gave a protein stability index (Saccharomyces cerevisiae [1]; [6]) of 0.189 ± 0.0028, a protein stability index (Saccharomyces cerevisiae [1]; [7]) of 0.0842 ± 0.021 and a protein stability index (Saccharomyces cerevisiae [1]; [8]) of 0.103 ± 0.023. It also gave a protein stability index (Saccharomyces cerevisiae [1]; [9]) of 0.153 ± 0.0027 and a protein stability index (Saccharomyces cerevisiae [2]) of 0.156 ± 0.038.

VGRVIVIVVAGV gave a protein stability index (Saccharomyces cerevisiae [1]; [3]) of 0.329 ± 0.012, a protein stability index (Saccharomyces cerevisiae [1]; [4]) of 0.395 ± 0.016 and a protein stability index (Saccharomyces cerevisiae [1]; [5]) of 0.274 ± 0.036. For the same sequence, the protein stability index (Saccharomyces cerevisiae [1]; [6]) was 0.4541 ± 0.0045, the protein stability index (Saccharomyces cerevisiae [1]; [7]) was 0.236 ± 0.0065 and the protein stability index (Saccharomyces cerevisiae [1]; [8]) was 0.267 ± 0.028. It also gave a protein stability index (Saccharomyces cerevisiae [1]; [9]) of 0.423 ± 0.022 and a protein stability index (Saccharomyces cerevisiae [2]) of 0.375 ± 0.033.

Sequence VGVCGSSGRVGG has a protein stability index (Saccharomyces cerevisiae [1]; [3]) of 0.688 ± 0.03, a protein stability index (Saccharomyces cerevisiae [1]; [4]) of 0.7314 ± 0.0042 and a protein stability index (Saccharomyces cerevisiae [1]; [5]) of 0.641 ± 0.014. The protein stability index (Saccharomyces cerevisiae [1]; [6]) was 0.718 ± 0.0032, the protein stability index (Saccharomyces cerevisiae [1]; [7]) was 0.643 ± 0.021 and the protein stability index (Saccharomyces cerevisiae [1]; [8]) was 0.645 ± 0.012. For the same sequence, the protein stability index (Saccharomyces cerevisiae [1]; [9]) was 0.717 ± 0.024 and the protein stability index (Saccharomyces cerevisiae [2]) was 0.7 ± 0.025.

For VGVIGWGGLGVG, the protein stability index (Saccharomyces cerevisiae [1]; [3]) was 0.486 ± 0.048, the protein stability index (Saccharomyces cerevisiae [1]; [4]) was 0.5527 ± 0.0051 and the protein stability index (Saccharomyces cerevisiae [1]; [5]) was 0.487 ± 0.019. For the same sequence, the protein stability index (Saccharomyces cerevisiae [1]; [6]) was 0.549 ± 0.015, the protein stability index (Saccharomyces cerevisiae [1]; [7]) was 0.4929 ± 0.0046 and the protein stability index (Saccharomyces cerevisiae [1]; [8]) was 0.485 ± 0.014. It also gave a protein stability index (Saccharomyces cerevisiae [1]; [9]) of 0.542 ± 0.023 and a protein stability index (Saccharomyces cerevisiae [2]) of 0.492 ± 0.00099.

VHGWRPLLFHTR gave a protein stability index (Saccharomyces cerevisiae [1]; [3]) of 0.648 ± 0.032, a protein stability index (Saccharomyces cerevisiae [1]; [4]) of 0.668 ± 0.0099 and a protein stability index (Saccharomyces cerevisiae [1]; [5]) of 0.647 ± 0.0073. The protein stability index (Saccharomyces cerevisiae [1]; [6]) was 0.702 ± 0.031, the protein stability index (Saccharomyces cerevisiae [1]; [7]) was 0.674 ± 0.024 and the protein stability index (Saccharomyces cerevisiae [1]; [8]) was 0.622 ± 0.024. It also gave a protein stability index (Saccharomyces cerevisiae [1]; [9]) of 0.6989 ± 0.0063 and a protein stability index (Saccharomyces cerevisiae [2]) of 0.519 ± 0.13.

VHTAIFTSWRRL gave a protein stability index (Saccharomyces cerevisiae [1]; [3]) of 0.696 ± 0.048, a protein stability index (Saccharomyces cerevisiae [1]; [4]) of 0.738 ± 0.018 and a protein stability index (Saccharomyces cerevisiae [1]; [5]) of 0.631 ± 0.04. The protein stability index (Saccharomyces cerevisiae [1]; [6]) was 0.7721 ± 0.001, the protein stability index (Saccharomyces cerevisiae [1]; [7]) was 0.481 ± 0.018 and the protein stability index (Saccharomyces cerevisiae [1]; [8]) was 0.494 ± 0.017. For the same sequence, the protein stability index (Saccharomyces cerevisiae [1]; [9]) was 0.685 ± 0.02 and the protein stability index (Saccharomyces cerevisiae [2]) was 0.491 ± 0.028.

For VIGLLSYFLVYL, the protein stability index (Saccharomyces cerevisiae [1]; [3]) was 0.498 ± 0.061, the protein stability index (Saccharomyces cerevisiae [1]; [4]) was 0.513 ± 0.0062 and the protein stability index (Saccharomyces cerevisiae [1]; [5]) was 0.407 ± 0.037. The protein stability index (Saccharomyces cerevisiae [1]; [6]) was 0.6091 ± 0.0039, the protein stability index (Saccharomyces cerevisiae [1]; [7]) was 0.438 ± 0.032 and the protein stability index (Saccharomyces cerevisiae [1]; [8]) was 0.406 ± 0.019. It also gave a protein stability index (Saccharomyces cerevisiae [1]; [9]) of 0.581 ± 0.03 and a protein stability index (Saccharomyces cerevisiae [2]) of 0.491 ± 0.02.

VIRSIVSAYMIC gave a protein stability index (Saccharomyces cerevisiae [1]; [3]) of 0.552 ± 0.043, a protein stability index (Saccharomyces cerevisiae [1]; [4]) of 0.649 ± 0.013 and a protein stability index (Saccharomyces cerevisiae [1]; [5]) of 0.563 ± 0.013. For the same sequence, the protein stability index (Saccharomyces cerevisiae [1]; [6]) was 0.6726 ± 0.0028, the protein stability index (Saccharomyces cerevisiae [1]; [7]) was 0.255 ± 0.0033 and the protein stability index (Saccharomyces cerevisiae [1]; [8]) was 0.248 ± 0.02. It also gave a protein stability index (Saccharomyces cerevisiae [1]; [9]) of 0.334 ± 0.037 and a protein stability index (Saccharomyces cerevisiae [2]) of 0.293 ± 0.051.
